Reference: patent publication US20220177583A1

Assays:
[1] = molecular target: human CLDN6 fused to GFP, expressed on engineered HEK293T cells (human) (UniProt P56747); experiment: FACS, 293T clone with human CLDN6, secondary antibody alone (negative control, background; column 1.5 ug Ab)
[2] = molecular target: human CLDN6 fused to GFP, expressed on engineered HEK293T cells (human) (UniProt P56747); experiment: flow cytometry on HEK293T CLDN6-mGFP A11 cells (Positive Artificial OE Cell Line), secondary antibody alone; the same number stands under the 0.1µg and the 1µg head
[3] = molecular target: human CLDN6, endogenously expressed on cancer cell lines (human) (UniProt P56747); experiment: FACS on ARK2 cells, secondary antibody only; number from the data table under the bars
[4] = molecular target: human CLDN6, endogenously expressed on cancer cell lines (human) (UniProt P56747); experiment: flow cytometry on UMUC4 cells (Positive Cell Line), secondary antibody alone; the same number stands under the 0.1µg and the 1µg head
[5] = molecular target: human CLDN6, endogenously expressed on cancer cell lines (human) (UniProt P56747); experiment: FACS, OVCA429 cells, secondary antibody alone (negative control, background; column 1.5 ug)
[6] = molecular target: human CLDN6, endogenously expressed on cancer cell lines (human) (UniProt P56747); experiment: FACS, ARK2 cells, secondary antibody alone (negative control, background; column 1.5 ug)
[7] = molecular target: human CLDN6 fused to GFP, expressed on engineered HEK293T cells (human) (UniProt P56747); experiment: FACS, 293T clone with human CLDN6, secondary antibody alone (negative control, background; column 0.3 ug Ab)
[8] = molecular target: human CLDN6 fused to GFP, expressed on engineered HEK293T cells (human) (UniProt P56747); experiment: FACS on 293T CLDN6 mGFP Clone A11 cells, secondary antibody only; number from the data table under the bars
[9] = molecular target: T1, mouse CLDN6 fused to GFP, expressed on engineered HEK293T cells (mouse) (UniProt Q9Z262); experiment: FACS, 293T clone with mouse CLDN6, secondary antibody alone (negative control, background)
T1 sequence (looked up): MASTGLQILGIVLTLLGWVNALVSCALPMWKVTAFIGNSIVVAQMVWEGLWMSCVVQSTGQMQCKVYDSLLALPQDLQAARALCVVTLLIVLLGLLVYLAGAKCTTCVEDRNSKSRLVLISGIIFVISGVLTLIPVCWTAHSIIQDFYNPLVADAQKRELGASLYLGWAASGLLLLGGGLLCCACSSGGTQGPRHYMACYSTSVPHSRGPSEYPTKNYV

[10] = molecular target: human CLDN6, endogenously expressed on cancer cell lines (human) (UniProt P56747); experiment: FACS, ARK2 cells, secondary antibody alone (negative control, background; column 0.3 ug)
[11] = molecular target: human CLDN6, endogenously expressed on cancer cell lines (human) (UniProt P56747); experiment: FACS on OVCA429 cells, sample 1: no 1o, 2nd antibody NBP1-51902, 2o wash 2x

human CLDN6, endogenously expressed on cancer cell lines (human), sequence (P56747 whole entry, the tested form may be a part): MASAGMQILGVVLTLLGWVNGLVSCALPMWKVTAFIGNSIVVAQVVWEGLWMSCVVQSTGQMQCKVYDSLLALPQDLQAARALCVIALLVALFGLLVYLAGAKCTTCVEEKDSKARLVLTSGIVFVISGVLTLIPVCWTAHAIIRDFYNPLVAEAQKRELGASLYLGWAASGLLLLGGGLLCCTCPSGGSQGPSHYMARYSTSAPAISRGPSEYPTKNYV

2nd Ab only (secondary detection antibody alone, negative control)
FACS signal [1]: 768 | flow cytometry signal [2]: 1240 | FL4H Singlets in Viable cells [3]: 9130 | flow cytometry signal [4]: 1110 | FACS signal [5]: 886 | FACS signal [6]: 1350 | FACS signal [7]: 768 | FL4H Singlets in Viable cells [8]: 9420 | FACS signal [9]: 1060 | FACS signal [10]: 1350 | Dylight 649 Signal by C6 [11]: 1210
